{"source": "patent US20260274955A1", "about": "(JANUX THERAPEUTICS, published 2026)", "data": [{"target": "T1, anti-CD28 Fab (SEQ ID NOs: 202, 203)", "T1 construct": "biotinylated and captured on neutravidin coated plates in the phage ELISA", "T1 sequence (VH, as listed by the source, chain 1 of 2)": "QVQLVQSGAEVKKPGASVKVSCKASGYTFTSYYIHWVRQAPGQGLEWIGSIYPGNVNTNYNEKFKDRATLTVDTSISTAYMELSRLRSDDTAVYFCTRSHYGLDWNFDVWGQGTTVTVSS", "T1 sequence (VL, as listed by the source, chain 2 of 2)": "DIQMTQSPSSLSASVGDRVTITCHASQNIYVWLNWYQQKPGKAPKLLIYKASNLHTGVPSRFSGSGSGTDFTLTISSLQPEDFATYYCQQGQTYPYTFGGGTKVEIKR", "experiment": "phage binding ELISA on captured biotinylated Fab;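 also: clonal phage supernatants added to wells preincubated with CD28 antigen or blocking buffer only, bound phage detected by ELISA with horseradish-conjugated anti-M13 antibody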", "procedure": "After panning, phage infected bacteria were plated out and colonies picked into 96 well blocks. Clonal phage was then amplified and separated from bacterial cells via centrifugation.\nClonal phage were harvested as crude supernatants and screened via standard ELISAs. […] Prior to the addition of clonal phage, wells were incubated with blocking buffer and CD28 antigen or blocking buffer alone. Without washing or aspirating, clonal phage supernatants were then added to the wells and incubated for a short time. Wells were then washed followed by detection of bound phage using a horse radish conjugated anti-M13 antibody. Clonal phage of interest were then sent for sequence analysis.", "values": [{"binder": "SCAAGAMWPWPVCV", "note": "[Phage-915]", "Anti-CD28 Fab (SEQ ID NOs: 202, 203) signal": 2.29}, {"binder": "RCAAGASYPWPPCL", "note": "[Phage-925]", "Anti-CD28 Fab (SEQ ID NOs: 202, 203) signal": 2.25}, {"binder": "WCKPGAPYKWPPCF", "note": "[Phage-942]", "Anti-CD28 Fab (SEQ ID NOs: 202, 203) signal": 2.14}, {"binder": "TCAAGAHYLWPWCM", "note": "[Phage-955]", "Anti-CD28 Fab (SEQ ID NOs: 202, 203) signal": 2.05}, {"binder": "MCSAGANYPWPWCL", "note": "[Phage-979]", "Anti-CD28 Fab (SEQ ID NOs: 202, 203) signal": 1.97}, {"binder": "TCAAGATYSWPMCF", "note": "[Phage-966]", "Anti-CD28 Fab (SEQ ID NOs: 202, 203) signal": 2}, {"binder": "TCAAGATYSWPWCF", "note": "[Phage-971]", "Anti-CD28 Fab (SEQ ID NOs: 202, 203) signal": 1.99}, {"binder": "TCSAGATYVWPQCF", "note": "[Phage-956]", "Anti-CD28 Fab (SEQ ID NOs: 202, 203) signal": 2.05}, {"binder": "TCAAGAHYTWPECF", "note": "[Phage-972]", "Anti-CD28 Fab (SEQ ID NOs: 202, 203) signal": 1.99}, {"binder": "TCAAGAMYTWPLCF", "note": "[Phage-943]", "Anti-CD28 Fab (SEQ ID NOs: 202, 203) signal": 2.14}, {"binder": "QCAAGASYPWPMCL", "note": "[Phage-951]", "Anti-CD28 Fab (SEQ ID NOs: 202, 203) signal": 2.08}, {"binder": "QCSAGAAWPWPFCL", "note": "[Phage-976]", "Anti-CD28 Fab (SEQ ID NOs: 202, 203) signal": 1.97}, {"binder": "MCAAGANYPWPQCL", "note": "[Phage-920]", "Anti-CD28 Fab (SEQ ID NOs: 202, 203) signal": 2.28}, {"binder": "MCAEFFNYPWPLCL", "note": "[Phage-946]", "Anti-CD28 Fab (SEQ ID NOs: 202, 203) signal": 2.11}, {"binder": "LCAEFFNYPWPLCL", "note": "[Phage-975]", "Anti-CD28 Fab (SEQ ID NOs: 202, 203) signal": 1.98}, {"binder": "SCAAVFSYSWPMCF", "note": "[Phage-973]", "Anti-CD28 Fab (SEQ ID NOs: 202, 203) signal": 1.99}, {"binder": "TCAAVFSYGWPECF", "note": "[Phage-949]", "Anti-CD28 Fab (SEQ ID NOs: 202, 203) signal": 2.09}, {"binder": "TCSAGATYAWPFCL", "note": "[Phage-913]", "Anti-CD28 Fab (SEQ ID NOs: 202, 203) signal": 2.31}, {"binder": "TCAAGAHYSWPACF", "note": "[Phage-923]", "Anti-CD28 Fab (SEQ ID NOs: 202, 203) signal": 2.25}, {"binder": "LCEEFADYPWPMCL", "note": "[Phage-965]", "Anti-CD28 Fab (SEQ ID NOs: 202, 203) signal": 2.01}, {"binder": "TCKAGATYLWPFCL", "note": "[Phage-926]", "Anti-CD28 Fab (SEQ ID NOs: 202, 203) signal": 2.23}, {"binder": "SCKPGVANYWPWCL", "note": "[Phage-917]", "Anti-CD28 Fab (SEQ ID NOs: 202, 203) signal": 2.29}, {"binder": "SCAAGATYSWPMCL", "note": "[Phage-974]", "Anti-CD28 Fab (SEQ ID NOs: 202, 203) signal": 1.99}, {"binder": "SCSAGAMYTWPTCL", "note": "[Phage-950]", "Anti-CD28 Fab (SEQ ID NOs: 202, 203) signal": 2.09}, {"binder": "TCAAGAMWAWPVCL", "note": "[Phage-911]", "Anti-CD28 Fab (SEQ ID NOs: 202, 203) signal": 2.32}, {"binder": "TCAAGAMWHWPVCL", "note": "[Phage-962]", "Anti-CD28 Fab (SEQ ID NOs: 202, 203) signal": 2.03}, {"binder": "TCSAGATWTWPQCL", "note": "[Phage-944]", "Anti-CD28 Fab (SEQ ID NOs: 202, 203) signal": 2.14}, {"binder": "TCSAGATYEWPWCM", "note": "[Phage-978]", "Anti-CD28 Fab (SEQ ID NOs: 202, 203) signal": 1.97}, {"binder": "MCAAGAHYTWPTCL", "note": "[Phage-977]", "Anti-CD28 Fab (SEQ ID NOs: 202, 203) signal": 1.97}, {"binder": "MCSAGAMYKWPLCL", "note": "[Phage-912]", "Anti-CD28 Fab (SEQ ID NOs: 202, 203) signal": 2.32}, {"binder": "MCSAGAMYSWPLCL", "note": "[Phage-918]", "Anti-CD28 Fab (SEQ ID NOs: 202, 203) signal": 2.29}, {"binder": "TCSAGAYYTWPYCF", "note": "[Phage-948]", "Anti-CD28 Fab (SEQ ID NOs: 202, 203) signal": 2.09}, {"binder": "TCAAGATYAWPECL", "note": "[Phage-953]", "Anti-CD28 Fab (SEQ ID NOs: 202, 203) signal": 2.08}, {"binder": "TCSAGFHYEWPRCL", "note": "[Phage-963]", "Anti-CD28 Fab (SEQ ID NOs: 202, 203) signal": 2.02}, {"binder": "TCAAGANYPWPYCL", "note": "[Phage-969]", "Anti-CD28 Fab (SEQ ID NOs: 202, 203) signal": 1.99}, {"binder": "TCAAGATYEWPACL", "note": "[Phage-947]", "Anti-CD28 Fab (SEQ ID NOs: 202, 203) signal": 2.09}, {"binder": "TCAAGATYKWPACL", "note": "[Phage-958]", "Anti-CD28 Fab (SEQ ID NOs: 202, 203) signal": 2.05}, {"binder": "TCSAGATWSWPMCL", "note": "[Phage-921]", "Anti-CD28 Fab (SEQ ID NOs: 202, 203) signal": 2.26}, {"binder": "MCSAGAMYPWPTCL", "note": "[Phage-959]", "Anti-CD28 Fab (SEQ ID NOs: 202, 203) signal": 2.04}, {"binder": "TCAAGATYPWPSCL", "note": "[Phage-924]", "Anti-CD28 Fab (SEQ ID NOs: 202, 203) signal": 2.25}, {"binder": "GCAAGATYPWPSCL", "note": "[Phage-957]", "Anti-CD28 Fab (SEQ ID NOs: 202, 203) signal": 2.05}, {"binder": "TCAAGASYAWPWCL", "note": "[Phage-960]", "Anti-CD28 Fab (SEQ ID NOs: 202, 203) signal": 2.03}, {"binder": "TCSAGASWAWPWCF", "note": "[Phage-961]", "Anti-CD28 Fab (SEQ ID NOs: 202, 203) signal": 2.03}]}]}
